Results published in patent US10500249B2, “Compositions and methods for preventing or treating diseases, conditions, or processes characterized by aberrant fibroblast proliferation and extracellular matrix deposition” (MOERAE MATRIX, INC., priority 2014, dated 2019).

Tests used:
Test in all cases: Kinase Profiling Assay
Format in all cases: biochemical
Settings in all cases: 100 μM
[1] = target: T1, NEK3 (h) (Homo sapiens, UniProt P51956)
T1 construct: purchased Millipore
T1 sequence (P51956 1-506): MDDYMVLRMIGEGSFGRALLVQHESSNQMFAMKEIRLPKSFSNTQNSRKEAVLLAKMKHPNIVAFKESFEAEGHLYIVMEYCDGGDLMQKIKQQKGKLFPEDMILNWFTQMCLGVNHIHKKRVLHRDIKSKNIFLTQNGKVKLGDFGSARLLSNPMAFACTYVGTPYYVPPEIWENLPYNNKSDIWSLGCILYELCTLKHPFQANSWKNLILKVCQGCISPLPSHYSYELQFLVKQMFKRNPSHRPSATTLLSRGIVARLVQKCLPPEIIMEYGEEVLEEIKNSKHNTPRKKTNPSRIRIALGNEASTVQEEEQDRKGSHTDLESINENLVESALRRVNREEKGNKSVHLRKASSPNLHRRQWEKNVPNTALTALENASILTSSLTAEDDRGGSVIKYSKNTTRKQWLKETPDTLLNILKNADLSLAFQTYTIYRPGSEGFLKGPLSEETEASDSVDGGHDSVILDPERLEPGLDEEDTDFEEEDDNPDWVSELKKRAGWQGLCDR
How it was run: (§1)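 Measured twice per kinase, activity in presence of MK2 inhibitory peptide was calculated against a 100% activity control after radiometric phosphorylation of a cationic substrate, anionic filter capture and scintillation counting; one of 266 human kinases profiled for specificity.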

[2] = target: T2, DAPK1 (h) (Homo sapiens, UniProt P53355)
T2 construct: purchased Millipore
How it was run: as §1

[3] = target: T3, GSK3β (h) (Homo sapiens, UniProt P49841)
T3 construct: purchased Millipore
How it was run: as §1

[4] = target: T4, ULK2 (h) (Homo sapiens, UniProt Q8IYT8)
T4 sequence (Q8IYT8 1-1036): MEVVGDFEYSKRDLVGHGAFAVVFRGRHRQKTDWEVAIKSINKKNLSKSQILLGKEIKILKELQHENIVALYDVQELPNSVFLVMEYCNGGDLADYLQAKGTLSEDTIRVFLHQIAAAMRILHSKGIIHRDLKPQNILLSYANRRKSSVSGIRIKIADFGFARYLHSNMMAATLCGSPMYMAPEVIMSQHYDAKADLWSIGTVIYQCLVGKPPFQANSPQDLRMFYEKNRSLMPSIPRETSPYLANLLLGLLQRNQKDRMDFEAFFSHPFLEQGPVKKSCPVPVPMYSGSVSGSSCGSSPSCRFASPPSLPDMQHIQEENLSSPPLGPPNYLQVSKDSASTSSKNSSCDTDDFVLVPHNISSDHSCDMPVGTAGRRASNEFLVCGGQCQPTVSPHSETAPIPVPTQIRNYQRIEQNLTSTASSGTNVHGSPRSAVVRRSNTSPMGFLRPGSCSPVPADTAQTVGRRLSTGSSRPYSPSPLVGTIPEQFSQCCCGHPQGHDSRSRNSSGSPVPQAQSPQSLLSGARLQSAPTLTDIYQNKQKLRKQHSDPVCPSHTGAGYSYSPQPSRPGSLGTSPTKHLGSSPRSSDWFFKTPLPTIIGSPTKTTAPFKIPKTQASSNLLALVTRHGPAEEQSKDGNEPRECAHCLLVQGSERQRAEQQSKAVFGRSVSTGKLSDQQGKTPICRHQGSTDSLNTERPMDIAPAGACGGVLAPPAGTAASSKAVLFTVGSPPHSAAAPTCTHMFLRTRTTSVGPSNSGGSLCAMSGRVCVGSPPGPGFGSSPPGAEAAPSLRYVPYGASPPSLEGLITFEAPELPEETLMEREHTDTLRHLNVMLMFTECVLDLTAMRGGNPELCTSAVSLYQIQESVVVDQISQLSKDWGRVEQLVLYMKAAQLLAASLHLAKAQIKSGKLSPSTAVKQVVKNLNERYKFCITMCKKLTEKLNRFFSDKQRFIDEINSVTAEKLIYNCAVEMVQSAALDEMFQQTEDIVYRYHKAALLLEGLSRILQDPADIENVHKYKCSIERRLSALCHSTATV
How it was run: as §1

[5] = target: T5, Rse (h) (Homo sapiens, UniProt Q06418)
T5 sequence (Q06418 41-890): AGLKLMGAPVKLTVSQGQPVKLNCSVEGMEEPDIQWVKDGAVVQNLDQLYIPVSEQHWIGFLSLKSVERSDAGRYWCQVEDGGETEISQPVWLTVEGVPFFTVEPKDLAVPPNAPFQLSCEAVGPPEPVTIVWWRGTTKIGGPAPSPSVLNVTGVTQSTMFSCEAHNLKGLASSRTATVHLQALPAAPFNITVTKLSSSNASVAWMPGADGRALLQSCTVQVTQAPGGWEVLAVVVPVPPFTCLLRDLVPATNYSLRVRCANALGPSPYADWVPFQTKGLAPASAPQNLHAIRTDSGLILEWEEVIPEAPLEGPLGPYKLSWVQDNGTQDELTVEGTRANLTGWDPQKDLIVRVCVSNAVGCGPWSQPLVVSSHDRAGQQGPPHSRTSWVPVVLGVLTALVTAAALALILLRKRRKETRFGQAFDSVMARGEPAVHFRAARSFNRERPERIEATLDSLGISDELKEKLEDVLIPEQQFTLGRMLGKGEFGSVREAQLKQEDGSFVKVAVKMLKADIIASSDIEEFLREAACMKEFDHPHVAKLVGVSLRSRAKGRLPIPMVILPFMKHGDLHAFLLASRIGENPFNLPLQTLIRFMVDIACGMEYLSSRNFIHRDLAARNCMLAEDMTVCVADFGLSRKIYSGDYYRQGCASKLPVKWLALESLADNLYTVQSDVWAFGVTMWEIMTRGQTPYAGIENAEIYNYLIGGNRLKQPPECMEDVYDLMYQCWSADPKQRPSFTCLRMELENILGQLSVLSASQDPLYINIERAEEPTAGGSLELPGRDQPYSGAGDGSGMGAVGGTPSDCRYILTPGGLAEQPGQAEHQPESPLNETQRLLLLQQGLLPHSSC
How it was run: as §1

[6] = target: T6, PKBα (h) (Homo sapiens, UniProt P31749)
T6 construct: purchased Millipore
How it was run: as §1

[7] = target: T7, PKBβ (h) (Homo sapiens, UniProt P31751)
T7 construct: purchased Millipore
How it was run: as §1

[8] = target: Met(Y1248H) (h) (Homo sapiens, UniProt P08581, Y1230H)
How it was run: as §1

T6 sequence (P31749 whole entry): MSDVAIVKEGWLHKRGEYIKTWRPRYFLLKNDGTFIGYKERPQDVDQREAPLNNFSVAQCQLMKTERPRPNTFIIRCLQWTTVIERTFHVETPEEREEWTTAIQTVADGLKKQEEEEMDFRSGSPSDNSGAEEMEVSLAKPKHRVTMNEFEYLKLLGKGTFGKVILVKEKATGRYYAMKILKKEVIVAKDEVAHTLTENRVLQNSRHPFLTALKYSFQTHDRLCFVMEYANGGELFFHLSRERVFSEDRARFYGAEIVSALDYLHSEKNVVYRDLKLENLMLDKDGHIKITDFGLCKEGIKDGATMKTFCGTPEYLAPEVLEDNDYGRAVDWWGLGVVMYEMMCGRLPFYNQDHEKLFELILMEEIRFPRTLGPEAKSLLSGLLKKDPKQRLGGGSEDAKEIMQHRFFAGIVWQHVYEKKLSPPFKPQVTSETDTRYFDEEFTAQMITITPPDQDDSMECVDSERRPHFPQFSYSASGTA
T3 sequence (P49841 whole entry): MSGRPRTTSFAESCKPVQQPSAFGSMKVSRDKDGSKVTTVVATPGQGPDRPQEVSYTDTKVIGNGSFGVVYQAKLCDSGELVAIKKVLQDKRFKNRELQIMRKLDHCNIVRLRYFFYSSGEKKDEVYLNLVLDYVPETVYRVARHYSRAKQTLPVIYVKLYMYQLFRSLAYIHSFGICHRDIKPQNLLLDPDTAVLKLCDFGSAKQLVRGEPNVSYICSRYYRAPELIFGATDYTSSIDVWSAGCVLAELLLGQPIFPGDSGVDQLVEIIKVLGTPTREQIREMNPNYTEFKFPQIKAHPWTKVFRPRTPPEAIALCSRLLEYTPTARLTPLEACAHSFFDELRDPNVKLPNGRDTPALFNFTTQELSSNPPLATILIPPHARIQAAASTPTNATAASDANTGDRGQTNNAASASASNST
T2 sequence (P53355 whole entry): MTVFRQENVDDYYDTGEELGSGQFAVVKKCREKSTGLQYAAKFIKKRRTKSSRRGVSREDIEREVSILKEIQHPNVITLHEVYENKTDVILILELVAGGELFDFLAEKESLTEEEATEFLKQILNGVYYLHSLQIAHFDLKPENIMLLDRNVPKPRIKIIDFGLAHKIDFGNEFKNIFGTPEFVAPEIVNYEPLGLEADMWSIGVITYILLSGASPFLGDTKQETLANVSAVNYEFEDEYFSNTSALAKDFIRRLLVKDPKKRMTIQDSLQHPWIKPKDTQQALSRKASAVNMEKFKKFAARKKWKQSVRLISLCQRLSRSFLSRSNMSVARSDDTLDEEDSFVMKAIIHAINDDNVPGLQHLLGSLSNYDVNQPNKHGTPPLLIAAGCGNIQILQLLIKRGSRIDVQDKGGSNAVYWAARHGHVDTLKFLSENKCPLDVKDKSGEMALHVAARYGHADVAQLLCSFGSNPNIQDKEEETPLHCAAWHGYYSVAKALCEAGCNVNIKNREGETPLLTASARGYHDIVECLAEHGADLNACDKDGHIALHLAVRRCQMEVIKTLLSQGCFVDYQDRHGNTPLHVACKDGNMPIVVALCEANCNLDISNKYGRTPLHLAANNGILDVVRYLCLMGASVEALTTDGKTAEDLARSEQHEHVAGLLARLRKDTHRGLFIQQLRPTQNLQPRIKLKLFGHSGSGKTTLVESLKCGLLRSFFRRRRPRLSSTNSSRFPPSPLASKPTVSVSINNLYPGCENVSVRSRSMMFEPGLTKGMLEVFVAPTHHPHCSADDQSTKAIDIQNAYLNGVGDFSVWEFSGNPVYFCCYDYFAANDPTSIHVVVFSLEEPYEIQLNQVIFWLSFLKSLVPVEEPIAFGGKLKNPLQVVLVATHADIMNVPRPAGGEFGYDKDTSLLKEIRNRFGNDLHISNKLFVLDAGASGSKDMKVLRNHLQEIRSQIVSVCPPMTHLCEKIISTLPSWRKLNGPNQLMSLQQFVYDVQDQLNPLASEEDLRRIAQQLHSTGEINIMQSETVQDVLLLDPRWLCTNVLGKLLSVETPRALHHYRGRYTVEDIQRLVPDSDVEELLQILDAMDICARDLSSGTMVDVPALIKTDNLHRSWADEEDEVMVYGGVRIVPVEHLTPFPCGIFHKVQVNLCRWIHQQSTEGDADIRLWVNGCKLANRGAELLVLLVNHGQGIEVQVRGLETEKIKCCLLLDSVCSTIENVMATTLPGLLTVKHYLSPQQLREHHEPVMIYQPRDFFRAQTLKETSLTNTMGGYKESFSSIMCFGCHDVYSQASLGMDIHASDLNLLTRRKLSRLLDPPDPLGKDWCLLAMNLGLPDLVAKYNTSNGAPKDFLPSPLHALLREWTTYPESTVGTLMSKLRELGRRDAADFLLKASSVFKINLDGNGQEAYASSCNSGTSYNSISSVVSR
T7 sequence (P31751 whole entry): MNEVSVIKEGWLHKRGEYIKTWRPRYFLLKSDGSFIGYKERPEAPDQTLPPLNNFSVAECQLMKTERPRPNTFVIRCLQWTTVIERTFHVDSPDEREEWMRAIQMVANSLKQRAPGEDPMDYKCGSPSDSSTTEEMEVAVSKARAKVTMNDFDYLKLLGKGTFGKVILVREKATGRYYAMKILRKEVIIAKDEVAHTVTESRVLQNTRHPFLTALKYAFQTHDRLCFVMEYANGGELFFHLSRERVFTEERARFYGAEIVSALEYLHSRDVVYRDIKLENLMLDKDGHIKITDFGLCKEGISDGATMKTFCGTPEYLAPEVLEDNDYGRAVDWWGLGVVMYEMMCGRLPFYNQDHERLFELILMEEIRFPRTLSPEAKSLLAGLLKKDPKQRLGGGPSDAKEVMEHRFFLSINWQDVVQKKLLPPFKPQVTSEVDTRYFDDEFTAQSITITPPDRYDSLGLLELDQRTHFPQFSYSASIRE

In the case of FAKLAARLYRKALARQLGVAA [MMI-0300], the “% activity” value [1] is reported as 92%, the “% activity” value [2] is reported as 46% and the “% activity” value [3] is reported as 205%. The “% activity” value [4] was 122%, the “% activity” value [5] was 88% and the “% activity” value [6] was 57%. The “% activity” value [7] was 84%.

In the case of “HRRIKAWLKKIKALARQLGVAA (Mammalian) [MMI-0500]”, the “% activity” value [1] is reported as 20%, the “% activity” value [2] is reported as 0% and the “% activity” value [3] is reported as 238%. The “% activity” value [4] was 124%, the “% activity” value [5] was 63% and the “% activity” value [6] was 30%. The “% activity” value [8] was 126% and the “% activity” value [7] was 21%.

For KAFAKLAARLYRKALARQLGVAA [MMI-0400], the “% activity” value [1] was 85%, the “% activity” value [2] was 36% and the “% activity” value [3] was 202%. For the same sequence, the “% activity” value [4] was 131%, the “% activity” value [5] was 89% and the “% activity” value [6] was 67%. The “% activity” value [8] was 63% and the “% activity” value [7] was 98%.

“YARAAARQARAKALNRQLGVA (Mammalian) [MMI-0200]” was tested, and the “% activity” value [1] was 100%, the “% activity” value [3] was 132% and the “% activity” value [4] was 132%. For the same sequence, the “% activity” value [5] was 88%, the “% activity” value [6] was 110% and the “% activity” value [8] was 153%. For the same sequence, the “% activity” value [7] was 250%.
